{
  "source": "the supplement of paper PMC10567573",
  "parents": {"B1": {"name": "IKZF1 (parent)", "chain": "YHSQDRYEFSSHITRGEHRFHMS"}},
  "data": [
    {"variants_of": "B1", "assay": "protein stability index of a GFP-peptide fusion (GPS, HEK-293T) (PSI 1-6); higher = more stable", "conditions": "c terminus: native", "values": [
      {"variant": "YHSQDRYEFSSHITRGEIRFHMS", "protein stability index": 1.65},
      {"variant": "YHSQDRYEFSSHITRGEGRFHMS", "protein stability index": 1.6},
      {"variant": "YHSQDRYEFSSHITRGEWRFHMS", "protein stability index": 2.34},
      {"variant": "YHSQDRYEFSSHITRGESRFHMS", "protein stability index": 1.83},
      {"variant": "YHSQDRYEFSSHITRGENRFHMS", "protein stability index": 1.45},
      {"variant": "YHSQDRYEFSSHITRGEPRFHMS", "protein stability index": 1.81},
      {"variant": "YHSQDRYEFSSHITRGEYRFHMS", "protein stability index": 1.83},
      {"variant": "YHSQDRYEFSSHITRGECRFHMS", "protein stability index": 2.04},
      {"variant": "YHSQDRYEFSSHITRGEHRFHMW", "protein stability index": 2.5},
      {"variant": "YHSQDRYEFSSHITRGEHRFHML", "protein stability index": 1.68},
      {"variant": "YHSQDRYEFSSHITRGEHRFHMD", "protein stability index": 1.5},
      {"variant": "YHSQDRYEFSSHITRGEHRFHMR", "protein stability index": 1.61},
      {"variant": "YHSQDRYEFSSHITRGEHRFHME", "protein stability index": 1.5},
      {"variant": "YHSQDRYEFSSHITRGEHRFHMV", "protein stability index": 1.97},
      {"variant": "YHSQDRYEFSSHITRGEHRFHMP", "protein stability index": 2},
      {"variant": "YHSQDRYEFSSHITRGEHRFHMG", "protein stability index": 2},
      {"variant": "YHSQDRYEFSSHITRGEHRFHMA", "protein stability index": 1.8},
      {"variant": "YHSQDRYEDSSHITRGEHRFHMS", "protein stability index": 1.98},
      {"variant": "YHSQDRYEMSSHITRGEHRFHMS", "protein stability index": 2.44},
      {"variant": "YHSQDRYEWSSHITRGEHRFHMS", "protein stability index": 3.1},
      {"variant": "YHSQDRYEHSSHITRGEHRFHMS", "protein stability index": 2.04},
      {"variant": "YHSQDRYEKSSHITRGEHRFHMS", "protein stability index": 2.05},
      {"variant": "YHSQDRYELSSHITRGEHRFHMS", "protein stability index": 1.96},
      {"variant": "YHSQDRYENSSHITRGEHRFHMS", "protein stability index": 1.8},
      {"variant": "YHSQDRYECSSHITRGEHRFHMS", "protein stability index": 2.54},
      {"variant": "YHSQDRYEVSSHITRGEHRFHMS", "protein stability index": 2.65},
      {"variant": "YHSQDRGEFSSHITRGEHRFHMS", "protein stability index": 2.44},
      {"variant": "YHSQDRQEFSSHITRGEHRFHMS", "protein stability index": 2.04},
      {"variant": "YHSQDRIEFSSHITRGEHRFHMS", "protein stability index": 2.27},
      {"variant": "YHSQDRFEFSSHITRGEHRFHMS", "protein stability index": 2.78},
      {"variant": "YHSQDRTEFSSHITRGEHRFHMS", "protein stability index": 1.85},
      {"variant": "YHSQDRLEFSSHITRGEHRFHMS", "protein stability index": 2.33},
      {"variant": "YHSQDREEFSSHITRGEHRFHMS", "protein stability index": 2.18},
      {"variant": "YHSQDRAEFSSHITRGEHRFHMS", "protein stability index": 1.89},
      {"variant": "YHSQDRMEFSSHITRGEHRFHMS", "protein stability index": 1.95},
      {"variant": "YHSQDRCEFSSHITRGEHRFHMS", "protein stability index": 1.91},
      {"variant": "YMSQDRYEFSSHITRGEHRFHMS", "protein stability index": 2.48},
      {"variant": "YQSQDRYEFSSHITRGEHRFHMS", "protein stability index": 2.4},
      {"variant": "YTSQDRYEFSSHITRGEHRFHMS", "protein stability index": 3.16},
      {"variant": "YPSQDRYEFSSHITRGEHRFHMS", "protein stability index": 3.48},
      {"variant": "YRSQDRYEFSSHITRGEHRFHMS", "protein stability index": 3.37},
      {"variant": "YISQDRYEFSSHITRGEHRFHMS", "protein stability index": 1.94},
      {"variant": "YLSQDRYEFSSHITRGEHRFHMS", "protein stability index": 2.02},
      {"variant": "YHSQDDYEFSSHITRGEHRFHMS", "protein stability index": 2.49},
      {"variant": "YHSQDKYEFSSHITRGEHRFHMS", "protein stability index": 2.64},
      {"variant": "YHSQDSYEFSSHITRGEHRFHMS", "protein stability index": 1.87},
      {"variant": "YHSQDNYEFSSHITRGEHRFHMS", "protein stability index": 2.44},
      {"variant": "YHSQDCYEFSSHITRGEHRFHMS", "protein stability index": 2.84},
      {"variant": "YHSQDEYEFSSHITRGEHRFHMS", "protein stability index": 2.29},
      {"variant": "YHSQDLYEFSSHITRGEHRFHMS", "protein stability index": 2.98},
      {"variant": "YHSQDAYEFSSHITRGEHRFHMS", "protein stability index": 2.22},
      {"variant": "YHSQDVYEFSSHITRGEHRFHMS", "protein stability index": 2.07},
      {"variant": "YHSQDRYEFSSHITRGEHTFHMS", "protein stability index": 1.92},
      {"variant": "YHSQDRYEFSSHITRGEHMFHMS", "protein stability index": 1.92},
      {"variant": "YHSQDRYEFSSHITRGEHCFHMS", "protein stability index": 3.13},
      {"variant": "YHSQDRYEFSSHITRGEHEFHMS", "protein stability index": 3.06},
      {"variant": "YHSQDRYEFSSHITRGEHIFHMS", "protein stability index": 2.17},
      {"variant": "YHSQDRYEFSSHITRGEHKFHMS", "protein stability index": 1.95},
      {"variant": "YHSQDRYEFSSHITRGEHSFHMS", "protein stability index": 1.99},
      {"variant": "YHSQDRYEFSSHITRGEHFFHMS", "protein stability index": 2.39},
      {"variant": "YHSQDRYEFSSHITRGEHVFHMS", "protein stability index": 2.16},
      {"variant": "YHSQDRYEFSSHITRGEHQFHMS", "protein stability index": 2.28},
      {"variant": "YHSQNRYEFSSHITRGEHRFHMS", "protein stability index": 1.84},
      {"variant": "YHSQYRYEFSSHITRGEHRFHMS", "protein stability index": 2.05},
      {"variant": "YHSQHRYEFSSHITRGEHRFHMS", "protein stability index": 2.74},
      {"variant": "YHSQPRYEFSSHITRGEHRFHMS", "protein stability index": 2.04},
      {"variant": "YHSQMRYEFSSHITRGEHRFHMS", "protein stability index": 3.27},
      {"variant": "YHSQWRYEFSSHITRGEHRFHMS", "protein stability index": 3.3},
      {"variant": "YHSNDRYEFSSHITRGEHRFHMS", "protein stability index": 1.89},
      {"variant": "YHSADRYEFSSHITRGEHRFHMS", "protein stability index": 2.13},
      {"variant": "YHSFDRYEFSSHITRGEHRFHMS", "protein stability index": 2.33},
      {"variant": "YHSLDRYEFSSHITRGEHRFHMS", "protein stability index": 2.08},
      {"variant": "YHSGDRYEFSSHITRGEHRFHMS", "protein stability index": 2.3},
      {"variant": "YHSEDRYEFSSHITRGEHRFHMS", "protein stability index": 3.35},
      {"variant": "YHSKDRYEFSSHITRGEHRFHMS", "protein stability index": 2.21},
      {"variant": "YHSPDRYEFSSHITRGEHRFHMS", "protein stability index": 1.94},
      {"variant": "YHSQDRYHFSSHITRGEHRFHMS", "protein stability index": 4.13},
      {"variant": "YHSQDRYMFSSHITRGEHRFHMS", "protein stability index": 2.11},
      {"variant": "YHSQDRYCFSSHITRGEHRFHMS", "protein stability index": 2.5},
      {"variant": "YHSQDRYQFSSHITRGEHRFHMS", "protein stability index": 2.17},
      {"variant": "YHSQDRYSFSSHITRGEHRFHMS", "protein stability index": 3.3},
      {"variant": "YHSQDRYPFSSHITRGEHRFHMS", "protein stability index": 3.38},
      {"variant": "YHSQDRYVFSSHITRGEHRFHMS", "protein stability index": 1.98},
      {"variant": "YHSQDRYDFSSHITRGEHRFHMS", "protein stability index": 2.45},
      {"variant": "YHSQDRYFFSSHITRGEHRFHMS", "protein stability index": 3.7},
      {"variant": "YHSQDRYGFSSHITRGEHRFHMS", "protein stability index": 1.72},
      {"variant": "YHSQDRYLFSSHITRGEHRFHMS", "protein stability index": 4.01},
      {"variant": "YHSQDRYEFSSHITAGEHRFHMS", "protein stability index": 2.46},
      {"variant": "YHSQDRYEFSSHITEGEHRFHMS", "protein stability index": 1.81},
      {"variant": "YHSQDRYEFSSHITMGEHRFHMS", "protein stability index": 1.47},
      {"variant": "YHSQDRYEFSSHITIGEHRFHMS", "protein stability index": 3.49},
      {"variant": "YHSQDRYEFSSHITNGEHRFHMS", "protein stability index": 1.99},
      {"variant": "YHSQDRYEFSSHITGGEHRFHMS", "protein stability index": 1.87},
      {"variant": "YHSQDRYEFSSHITSGEHRFHMS", "protein stability index": 1.55},
      {"variant": "YHSQDRYEFSSHITLGEHRFHMS", "protein stability index": 2.12},
      {"variant": "YHSQDRYEFSSHITQGEHRFHMS", "protein stability index": 2.22},
      {"variant": "YHSQDRYEFSSHITPGEHRFHMS", "protein stability index": 1.42}
    ]}
  ]
}
